Data taken from patent publication US12043827B2, “Compositions, systems, and methods for base diversification” (Pairwise Plants Services, Inc., priority 2020, dated 2024).
Entries after “also recorded” stand apart in the source; their conditions may differ.

B1: APOBEC1: cytosine deaminase fused to MCP, recruited towards Cas9 nickase (D10A) by gRNA with 2×MS2 hairpins (protein, listed as Rattus norvegicus)
chain: SSETGPVAVDPTLRRRIEPHEFEVFFDPRELRKETCLLYEINWGGRHSIWRHTSQNTNKHVEVNFIEKFTTERYFCPNTRCSITWFLSWSPCGECSRAITEFLSRYPHVTLFIYIARLYHHADPRNRQGLRDLISSGVTIQIMTEQESGYCWRNFVNYSPSNEAHWPRYPHLWVRLYVLELYCIILGLPPCLNILRRKQPQLTFFTIALQSCHYQRLPPHILWATGLK
B2: mMPG: methylpurine glycosylase from Mus musculus, SEQ ID NO:83, UniProtKB Q04841 (protein, listed as Mus musculus)
chain: MPARGGSARPGRGALKPVSVTLLPDTEQPPFLGRARRPGNARAGSLVTGYHEVGQMPAPLSRKIGQKKQRLADSEQQQTPKERLLSTPGLRRSIYFSSPEDHSGRLGPEFFDQPAVTLARAFLGQVLVRRLADGTELRGRIVETEAYLGPEDEAAHSRGGRQTPRNRGMFMKPGTLYVYLIYGMYFCLNVSSQGAGACVLLRALEPLEGLETMRQLRNSLRKSTVGRSLKDRELCSGPSKLCQALAIDKSFDQRDLAQDDAVWLEHGPLESSSPAVVVAAARIGIGHAGEWTQKPLRFYVQGSPWVSVVDRVAEQMDQPQQTACSEGLLIVQK
B3: SpThp1: uracil DNA glycosylase with activity towards inosine from Schizosaccharomyces pombe, SEQ ID NO:79 (protein)
chain: MNDIETRDTGTKNDNSSEFNLSVKSHKRKRSFDDENLELEESREETSGGILKKAKTQSFSESLERFRFAHAGSNNEYRKTDVVKNSDTDNGLLKSAVETITLENGLRNRRVNVTKKSTLKASVKKSTLKKKNEVDPALLQGVPDYICENPYAIIVGLNPGITSSLKGHAFASPSNRFWKMLNKSKLLEGNAEFTYLNDKDLPAHGLGITNLCARPSSSGADLRKEEMQDGARILYEKVKRYRPQVGLFISGKGIWEEMYKMLTGKKLPKTFVFGWQPEKFGDANVFVGISSSGRAAGYSDEKKQNLWNLFAEEVNRHREIVKHAV
modifications: Schizosaccharomyces pombe
B4: CgMPG: truncated MPG of Cricetulus griseus, SEQ ID NO:86, fused to C-terminus of ABE8e (protein, listed as Cricetulus griseus)
chain: EDHPARLGPEFFDQPAVTLARAFLGQVLVRRLADGTELRGRIVETEAYLGPEDEAAHSRGGRQTPRNRGMFMKPGTLYVYIIYGMYFCLNVSSQGAGACVLLRALEPLEGLDTMRQLRSTLRKSTVSRTLKDRELCSGPSKLCQALAIDKSFDQRDLTQDEAVWLEHGPLATGSPAVVAAARIGIGHAGEWTQKPLRFYVQGSPWVSVVDRVAEQMCQPQQTA
B5: ClMPG: truncated MPG of Canis lupus, SEQ ID NO:87, fused to C-terminus of ABE8e (protein, listed as Canis lupus)
chain: KSHSAQLGSDFFDQPAVALARAFLGQVLVRRLDDGTELRGRIVETEAYLGPEDEAAHSRGGRQTPRNRGMFMKPGTLYVYIIYGMYFCLNVSSQGDGACVLLRALEPLGGLETMRQLRSTLRKGTTGRALKDRELCSGPSKLCQALAIDKSFDQRDLAKDRAVWLERSPPGPSEPAVVAAARVGIGHAGEWAQKPLRFYLRGSPWVSVVDRAAEQNAQA
B6: CjMPG: truncated MPG of Callithrix jacchus, SEQ ID NO:88, fused to C-terminus of ABE8e (protein, listed as Callithrix jacchus)
chain: KGYLTRLGSEFFDQPAVTLAQAFLGQVLVRRLPNGTELRGRIVETEAYLGPEDEAAHSRGGRQTPRNRGMFMKPGTLYVYIIYGMYFCMNISSQGDGACVLLRALEPLEGLETMRQLRSTLRKGTASRVLKDRELCSGPSKLCQALAIDKSFDQRDLAQDEAIWLEHGPLEPSGPTVVAAARVGIGYAGEWSRKPLRFYVRGSPWVSVVDRVAEQDAQA

Columns and labels:
Format in all cases: cell-based
[1] = system: several genomic sites in HEK293T cells (target nucleic acid of SEQ ID NO:132); experiment: Deaminase screen for base diversification, MCP-deaminase recruited to Cas9 nickase (D10A), HTS in HEK293T cells; conditions: MCP fusion recruited to Cas9 nickase (D10A) by 2xMS2 gRNA, no UGI, FIG. 4
Method: They were fused to MCP (MS2 […]) at the N-terminus, and recruited towards Cas9 nickase (D10A) by using gRNA fused to 2×MS2 hairpins. They were assayed against several genomic sites in HEK293T cells. Base conversion profiles were analyzed by high-throughput sequencing and the results are shown in FIG. 4 for the target nucleic acid of SEQ ID NO:132.
AP endonuclease I (APE1) is an enzyme within the base excision repair pathway that cleaves the phosphodiester bond at the abasic site, generating a nick in the base-edited strand. […] In constructs lacking UGI, base diversification is usually accompanied with indels. For example, in all target sites described above, about 5-20% of products contain indels, which lowers the efficiency of base diversification (FIG. 5).

APE1 = target: T1, APE1 (Homo sapiens, UniProt P27695); experiment: APE1 inhibitor effect on base diversification and indels, AID or pmCDA1 fused to Cas9 nickase (D10A), HTS in HEK293T cells; conditions: 100 μM and 200 μM, 3 d
T1 construct: endogenous in cells; host or cells: HEK293T
Method: APE1 was inhibited by using CRT0044876 (Scheme 1), which is a potent and well-known APE1 inhibitor.
To ascertain whether this compound improves base diversification profile, HEK293T cells were treated with AID or pmCDA1 fused to Cas9 nickase (D10A) in the presence of CRT0044876. After 3 d, the cells were harvested and analyzed through high-throughput sequencing (HTS).

endogenous loci = experiment: Transversion mutations from adenine: ABE7.10 with inosine glycosylases (fusion or in trans), HTS in HEK293T cells; conditions: fusion constructs and co-transfected constructs with ABE7.10, FIGS. 7A-7B and 8A-8B
Description: The experiment was designed to generate transversion mutations from adenines by promoting inosines to undergo the same cellular DNA repair pathways that generate transversion mutations during translesion-bypass polymerization in cytosine base editing. While not wishing to be bound to any particular theory, it was hypothesized that the key step was to facilitate the glycosylation of inosines generated during adenine base editing. It was hypothesized that once glycosylated, the resulting abasic site can be a substrate for translesion-bypass repair and that this would lead to transversion mutations. Exogenous inosine glycosylases were provided along with ABE to promote inosine glycosylation.
Several inosine glycosylases were screened in HEK293T cells and it was determined whether they were capable of acting on inosines generated by ABE. If inosine is converted into an abasic site, and subsequently repaired through translesion-bypass polymerization, transversion mutations can be generated from adenines.
Five different glycosylases from various species were selected for testing. The following genes were codon-optimized and cloned into a mammalian expression vector, either as unfused gene, or as a C-terminal fusion to ABE7.10 (species source in parenthesis); hMPG (Homo sapiens) having an amino acid sequence of SEQ ID NO:84, mMPG (Mus musculus) having an amino acid sequence of SEQ ID NO:83, rMPG (Rattus norvegicus) having an amino acid sequence of SEQ ID NO:80, SpThp1 (Schizosaccharomyces pombe) having an amino acid sequence of SEQ ID NO:79, MaHDG (Methanosarcina acetivorans) having an amino acid sequence of SEQ ID NO:81, and MbHDG (Methanosarcina barkeri) having an amino acid sequence of SEQ ID NO:82. […] The HEK293T cells were transfected with a plasmid encoding gRNA targeting endogenous loci and either the fusion plasmid or a mixture of plasmids expressing ABE7.10 and the above inosine glycosylases. After 3 days, high-throughput sequencing was used to determine the editing result of targeted adenines. Mock transfection (using pUC19) was used to set baseline editing. All conditions that used ABE7.10 generated 10-20% guanine transition, as expected.

[2] = system: Sites 1-4 (SEQ ID NO:131-134); experiment: Fusion architecture for adenine diversifiers (ABE8.20m N- or C-terminal glycosylase fusions), HTS in HEK293T cells; conditions: four guide RNAs, 3 days, FIG. 9
Method: Several glycosylase domains were fused to either the N-terminus or C-terminus of ABE8.20m (SEQ ID NO:57). For the N-terminal fusions to ABE8.20m, the deaminase was between the glycosylase domain and CRISPR-Cas effector protein, and, for the C-terminal fusions to ABE8.20m, the CRISPR-Cas effector protein was between the glycosylase domain and deaminase. Three putative inosine glycosylases were tested, which are: hMPG, a methylpurine glycosylase (MPG) from Homo sapiens (SEQ ID NO:84, UniProtKB—P29372); mMPG from Mus musculus (SEQ ID NO:83, UniProtKB—Q04841); and SpThp1, a known uracil DNA glycosylase that also has activity towards inosine, from Schizosaccharomyces pombe (SEQ ID NO:79, UniProtKB—O59825) (Alseth et al. Nucleic Acids Research 2005, 33(3) 1123-1131).
The following plasmids were transfected into HEK293T cells: a plasmid encoding ABE8.20m or a fusion protein including ABE8.20m fused to one of the above inosine glycosylases, and a plasmid encoding a guide RNA. […] Four guide RNAs were tested corresponding to the following four target nucleic acids (i.e., sites): Site 1: […] (SEQ ID NO:131), Site 2: […] (SEQ ID NO:132), Site 3: […] (SEQ ID NO:133), and Site 4: […] (SEQ ID NO:134). After three days, the editing efficiency was measured by high throughput sequencing of targeted loci.

[3] = system: Sites 1-5 (SEQ ID NO:131, 134, 133, 140, 132); experiment: Inosine glycosylase homolog testing, C-terminal fusions to ABE8e; conditions: C-terminal fusion to ABE8e, Sites 1-5, FIG. 16

T1 sequence (P27695 whole entry, the tested form may be a part): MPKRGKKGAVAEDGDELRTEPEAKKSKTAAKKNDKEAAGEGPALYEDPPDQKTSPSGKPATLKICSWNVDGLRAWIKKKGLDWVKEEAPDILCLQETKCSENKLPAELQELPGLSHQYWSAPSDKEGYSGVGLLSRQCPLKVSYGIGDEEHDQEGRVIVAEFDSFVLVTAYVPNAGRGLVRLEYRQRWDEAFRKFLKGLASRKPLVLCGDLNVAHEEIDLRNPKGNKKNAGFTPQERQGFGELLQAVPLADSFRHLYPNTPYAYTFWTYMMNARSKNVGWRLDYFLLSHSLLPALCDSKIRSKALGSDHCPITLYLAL

Molecule	generation of C and T bases from adenine over background (endogenous loci)	adenine to C or T editing activity of adenine diversifiers [3]	other results
APOBEC3A: cytosine deaminase fused to MCP, recruited towards Cas9 nickase (D10A) by gRNA with 2×MS2 hairpins			conversion of C into G, T, and A within the base editing window [1]: robustly converts C into G, T, and A nucleotides within the base editing window
O=C(O)c1cc2cccc([N+](=O)[O-])c2[nH]1 [CRT0044876]			base diversification rate (APE1; FIGS. 6A and 6C): some decrease in base diversification rate was also observed; amount of indel generated (APE1; multiple target sites, FIGS. 6B and 6D): significant decrease in the amount of indel generated across multiple target sites; also recorded: reduces the rate of indel mutations
hMPG: methylpurine glycosylase from Homo sapiens, SEQ ID NO:84, UniProtKB P29372	significant amount of C and T bases over background		
ABE8.20m: adenine base editor, SEQ ID NO:57, without glycosylase domain			A to C or T change of target adenine [2]: negligible A to C or T change
B1			conversion of C into G, T, and A within the base editing window [1]: robustly converts C into G, T, and A nucleotides within the base editing window
B2	significant amount of C and T bases over background		
B3	significant amount of C and T bases over background		
B4		displayed the highest activity	
B5		displayed the highest activity	
B6		displayed the highest activity	
